Experimental data taken from patent US20160194391A1 (AstraZeneca / MedImmune, published 2016).
Like-named read-outs stand apart in the source and are kept apart here. One block for each binder: values may come before it.

Experiments:
human IL-6 [1] = molecular target: T1, human IL-6 (human, UniProt P05231 30-212); assay: cell-based or functional assay
human IL-6 [2] = molecular target: T1, human IL-6; assay: SPR (SensiQ Pioneer), mAb captured on protein G, IL-6 as analyte (3×FLAG-IL-6 or IL-6 CYT-213, 1-100 nM), 25 C, 1:1 model
Protocol: Equilibrium constants for rabbit human chimeric mAbs were determined by binding the mAb to the protein G coated chip followed by binding of each analyte (IL-6 or IL-23) to its respective mAb. In order to minimize mass transfer effects, the surface densities of the mAbs for each analyte were adjusted so that as analyte binding approached saturation its corresponding RU fell between 200 and 300. […] For each binding and dissociation cycle the chip surface was regenerated with 15 uL of 20 mM NaOH (5671-02, Mallinckrodt Baker, Philliphsburg, N.J.). The assay temperature was maintained at 25° C. with an analyte flow rate of 50 μL/min and included a 2 minute association phase and 10-30 minute dissociation phase. The on/off rates (kₐ/kd) and dissociation constants (KD) were determined using the format described above along with pseudo-first-order 1:1 interaction model software (Qdat, ICx Nomadics, Stillwater, Okla.).

Primate IL-6 = molecular target: T2, Primate IL-6 (Macaca mulatta, UniProt P51494); assay: cell-based or functional assay
T2 sequence (cytokine, looked up): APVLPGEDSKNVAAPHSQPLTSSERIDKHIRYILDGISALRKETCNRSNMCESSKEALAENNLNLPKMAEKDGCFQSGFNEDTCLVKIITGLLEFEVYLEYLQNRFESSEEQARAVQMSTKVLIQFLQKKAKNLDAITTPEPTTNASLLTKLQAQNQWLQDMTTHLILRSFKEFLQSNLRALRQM

[3] = molecular target: T3, human dimeric IL-23 (eBiosciences 34-8239) (human, UniProt P29460 23-328; Q9NPF7 20-189); assay: cell-based or functional assay
T3 sequence (looked up) 1: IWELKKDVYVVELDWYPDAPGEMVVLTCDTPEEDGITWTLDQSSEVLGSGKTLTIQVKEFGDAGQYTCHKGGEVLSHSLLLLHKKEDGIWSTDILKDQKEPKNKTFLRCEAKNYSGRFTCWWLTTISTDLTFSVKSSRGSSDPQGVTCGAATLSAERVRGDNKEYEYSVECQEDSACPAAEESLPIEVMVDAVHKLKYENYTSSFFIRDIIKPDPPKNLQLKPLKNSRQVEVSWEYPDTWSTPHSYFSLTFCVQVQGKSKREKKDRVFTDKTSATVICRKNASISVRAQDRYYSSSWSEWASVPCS
T3 sequence (looked up) 2: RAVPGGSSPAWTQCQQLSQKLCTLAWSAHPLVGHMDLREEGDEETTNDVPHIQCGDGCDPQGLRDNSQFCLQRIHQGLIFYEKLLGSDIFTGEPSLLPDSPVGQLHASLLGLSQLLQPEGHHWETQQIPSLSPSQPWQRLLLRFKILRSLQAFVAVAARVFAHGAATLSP

IL-23 p40-p19-His = molecular target: T4, IL-23 p40-p19-His (human); assay: ELISA on IL-23 p40-p19-His
T4 construct: Single-chain fusion coated on the IL-23 ELISA plates; also called p40:p19-6×HIS
T4 chain: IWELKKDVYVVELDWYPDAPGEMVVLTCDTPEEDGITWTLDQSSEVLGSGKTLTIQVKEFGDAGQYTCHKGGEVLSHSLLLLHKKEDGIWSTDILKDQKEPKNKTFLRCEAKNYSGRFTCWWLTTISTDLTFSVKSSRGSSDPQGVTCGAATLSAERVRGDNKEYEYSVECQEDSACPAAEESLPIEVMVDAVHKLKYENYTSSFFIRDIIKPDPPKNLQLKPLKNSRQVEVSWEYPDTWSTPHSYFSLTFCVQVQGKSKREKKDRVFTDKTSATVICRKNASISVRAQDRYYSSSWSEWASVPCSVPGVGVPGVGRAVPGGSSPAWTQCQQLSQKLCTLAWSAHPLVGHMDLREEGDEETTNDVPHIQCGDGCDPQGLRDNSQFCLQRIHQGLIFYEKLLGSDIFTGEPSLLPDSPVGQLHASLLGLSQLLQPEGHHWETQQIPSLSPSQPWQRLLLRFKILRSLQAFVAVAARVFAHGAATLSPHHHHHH

[4] = molecular target: T5, primate IL-23 (p40:p19 fusion, 6×HIS) (primate); assay: cell-based or functional assay
T5 chain: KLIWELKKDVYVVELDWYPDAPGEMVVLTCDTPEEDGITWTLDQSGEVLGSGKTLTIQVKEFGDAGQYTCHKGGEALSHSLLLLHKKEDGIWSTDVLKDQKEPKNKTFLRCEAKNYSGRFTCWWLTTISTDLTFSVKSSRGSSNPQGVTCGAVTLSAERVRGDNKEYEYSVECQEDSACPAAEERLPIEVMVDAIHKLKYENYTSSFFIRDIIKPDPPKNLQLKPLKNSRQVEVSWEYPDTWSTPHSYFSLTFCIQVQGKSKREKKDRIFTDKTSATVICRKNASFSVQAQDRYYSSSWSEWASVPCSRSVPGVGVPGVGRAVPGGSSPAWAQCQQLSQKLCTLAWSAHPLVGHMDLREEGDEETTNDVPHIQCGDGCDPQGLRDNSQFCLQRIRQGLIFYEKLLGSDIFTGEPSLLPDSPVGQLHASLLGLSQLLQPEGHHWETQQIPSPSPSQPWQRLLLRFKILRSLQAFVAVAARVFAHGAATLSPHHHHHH

[5] = molecular target: T3, human dimeric IL-23 (eBiosciences …); assay: cell-based or functional assay; remark: listed apart in the source
human IL-12 [6] = molecular target: T6, human IL-12 (human, UniProt P29459 23-219; P29460 23-328); assay: IL-12 binding assay of the selection not described
T6 construct: Bioassay used Prospec-Tany Cyt-362
T6 sequence (looked up) 1: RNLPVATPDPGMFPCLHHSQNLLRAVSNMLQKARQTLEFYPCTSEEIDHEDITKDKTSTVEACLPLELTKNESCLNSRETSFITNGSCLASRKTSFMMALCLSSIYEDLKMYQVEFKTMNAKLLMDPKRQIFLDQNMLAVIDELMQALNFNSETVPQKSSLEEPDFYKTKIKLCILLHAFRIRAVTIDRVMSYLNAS
T6 sequence (looked up) 2: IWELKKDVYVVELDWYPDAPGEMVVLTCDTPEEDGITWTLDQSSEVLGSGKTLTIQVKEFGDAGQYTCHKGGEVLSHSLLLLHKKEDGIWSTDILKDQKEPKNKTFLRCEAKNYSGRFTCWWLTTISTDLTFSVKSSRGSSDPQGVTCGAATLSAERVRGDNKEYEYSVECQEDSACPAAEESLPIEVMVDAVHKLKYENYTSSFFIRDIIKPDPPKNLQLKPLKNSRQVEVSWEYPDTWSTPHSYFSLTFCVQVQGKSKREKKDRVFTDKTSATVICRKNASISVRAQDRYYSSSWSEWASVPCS

human IL-6 [7] = molecular target: T1, human IL-6; assay: cell-based or functional assay; remark: listed apart in the source
human IL-12 [8] = molecular target: T6, human IL-12; assay: ELISA, human IL-12 coated on the plate; antibody concentration not given [Binding to Human IL-12]
monkey IL-12 (macaque) [9] = molecular target: T7, monkey IL-12 (macaque) (macaque, UniProt P48091 23-219; P48095 23-328); assay: cell-based or functional assay
T7 sequence (looked up) 1: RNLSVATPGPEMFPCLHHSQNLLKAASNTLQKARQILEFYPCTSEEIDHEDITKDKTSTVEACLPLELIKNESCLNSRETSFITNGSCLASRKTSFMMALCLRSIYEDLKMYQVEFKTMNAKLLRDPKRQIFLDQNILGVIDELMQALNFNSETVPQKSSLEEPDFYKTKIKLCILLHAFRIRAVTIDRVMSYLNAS
T7 sequence (looked up) 2: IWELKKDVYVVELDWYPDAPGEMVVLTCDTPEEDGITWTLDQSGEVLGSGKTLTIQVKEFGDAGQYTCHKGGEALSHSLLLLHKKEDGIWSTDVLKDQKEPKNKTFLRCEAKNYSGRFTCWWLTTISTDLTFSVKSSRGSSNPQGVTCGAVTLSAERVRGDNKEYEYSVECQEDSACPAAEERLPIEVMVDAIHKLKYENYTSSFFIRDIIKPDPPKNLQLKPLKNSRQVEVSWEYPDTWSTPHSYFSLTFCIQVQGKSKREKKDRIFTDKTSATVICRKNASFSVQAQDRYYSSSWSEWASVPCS

[10] = molecular target: T3, human dimeric IL-23 (eBiosciences …); assay: SPR; format for the anti-IL-23 scFv alone not described
[11] = molecular target: T3, human dimeric IL-23 (eBiosciences …); assay: cell-based or functional assay; remark: listed apart in the source
monkey IL-12 (macaque) [12] = molecular target: T7, monkey IL-12 (macaque); assay: cell-based or functional assay; remark: listed apart in the source
[13] = molecular target: T3, human dimeric IL-23 (eBiosciences …); assay: cell-based or functional assay; remark: listed apart in the source

- EC50, inhibition of IL-6 induced B9 cell proliferation (human IL-6 [1]): 0.054 ng/mL
- Kd (human IL-6 [2]): 0.128 nM
- koff (human IL-6 [2]): 8.49e-05 s⁻¹
- kon (human IL-6 [2]): 666000 M⁻¹ s⁻¹
- IC50 (read off the curve) (B9 proliferation, OD570-600) (Primate IL-6): ~4 ng/mL
B1: 18D4 chimeric mAb (antibody, V domains shown)
VH: QSVEESGGRLVTPGTPLTLTCTVSGFSLSSYAMTWVRQAPGKGLEWIGTSYVYSGDTWYASWVKGRFTISKTSTTVDLKITSPTTEDTATYFCARVGDYDDYGAHDVFDSWGPGTLVTVSS
VL: YDMTQTPASVEVAVGGTVTIKCQASESISSWLSWYQQKPGQRPKLLLYRASTLASGVSSRFSGSGYGTEFTLTISGVQCEDAATYYCQQGYTGGNVDNAFGGGTKVVVVR
notes: Rabbit/human chimeric IgG (human IgG1, kappa); HEK293; also called 18D4 clone

- IC50 (read off the curve) (IL-17 from mouse splenocytes, OD450) [3]: ~1 ng/mL
- binding result (IL-23 p40-p19-His): binds
- IC50 (read off the curve) (IL-17 from mouse splenocytes, OD450) [4]: ~1 ng/mL
- EC50: concentration necessary to inhibit bioactivity of 50 pg/ml of IL-6 [5]: 0.603 ng/mL
- binding result (human IL-12 [6]): binds
B2: 1H1 chimeric mAb (antibody, V domains shown)
VH: QELKESGGRLVTPGGSLTLSCTASGLTLGSYSMTWVRQAPGKGLEWMGVIGVGGTLNYASWAQGRFTISKPSSTTVDLKMTSLTTEDTATYFCARGTYSGDSIWGPGTLVTVSS
VL: DVVMTQTPSSTSAAVGGTVTIKCQASQSISSWLAWYQQKPGQPPKPLIVRASILTSGVPSRFKGSRSGTEYTLTISGVQREDAATYYCLGGDGHVSNFGGGTELEILR
notes: Rabbit/human chimeric IgG (human IgG1, kappa); HEK293; also called mAb 1H1

- IC50 (read off the curve) (B9 proliferation, OD570-600) (human IL-6 [7]): ~0.7 ng/mL
B3: 9C8 Hum scFv v3-2 (scFv)
scFv: DIQMTQSPSSVSASVGDRVTITCQASQSISNELSWYQQKPGKAPKLLIYRTSTLASGVPSRFSGSGSGTDFTLTISSLQPEDFATYYCQQGYNSNDVDNVFGGGTKVEIKGGGGSGGGGSGGGGSGGGGSEVQLVESGGGLVQPGGSLRLSCAASGIDLSSYDMSWVRQAPGKGLEWVGYIYTDSSTYYANWAKGRFTISRDNSKNTLYLQMNSLRAEDTAVYYCARGSTDYAFDTRLDLWGQGTLVTVSSGPPPPPHHHHHH

- binding result (human IL-12 [8]): binds
- IC50 (read off the curve) (IL-17 from mouse splenocytes, OD450) [3]: ~0.6 ng/mL
- EC50, inhibition of IL-23 induced IL-17 secretion by mouse spleen cells [5]: 0.988 ng/mL
B4: 49B7 chimeric mAb (antibody, V domains shown)
VH: QSLEESGGRLVTPGGSLTLTCTVSGIDLSDYDMSWVRQAPGKGLEWIGIVYDIGTIYYAPWAEGRFTISKTSTTVDLKMSSLTTEDTATYFCAREAPGYSDGDIWGPGTLVTVSS
VL: ALVMTQTPSSVSAAVGGTVTINCQASETVDNNKRLSWYQQKPGQPPKLLIYGAATLASGVPSRFKGSGSGAHFTLTISNVQREDAATYVCGGYKDSTDVGFGGGTELEILR
notes: Rabbit/human chimeric IgG (human IgG1, kappa); HEK293

- IC50 (read off the curve) (monkey IL-12 (macaque) [9]): ~10 ng/mL
- Kd [10]: 0.092 nM
- koff [10]: 7.11e-05 s⁻¹
- kon [10]: 773000 M⁻¹ s⁻¹
- EC50, inhibition of IL-23 induced IL-17 secretion by mouse spleen cells [11]: 1.37 ng/mL
- IC50 (read off the curve) (interferon-gamma from NK92 cells, OD450) (monkey IL-12 (macaque) [12]): ~10 ng/mL
B5: 31A12 humanized scFv (mammalian expressed) (scFv)
scFv: DIQLTQSPSFLSASVGDRVTITCQASEDIESYLAWYQQKPGKAPKLLIYSASTLTSGVPSRFSGSGSGTEFTLTISSLQPEDFATYYCLGADDTTTVFGGGTKVEIKGGGGSGGGGSGGGGSGGGGSEVQLVESGGGLVQPGGSLRLSCTASGFSLSSYWMTWVRQAPGKGLEWVGTIATSSTYYASWAKGRFTISRDNSKNTLYLQMNSLRAEDTAVYYCARGLTTDYDLDLWGQGTLVTVSSGPPPPHHHHHH
notes: also called Anti IL-23 31A12 scFv; 31A12 scFv

- EC50 (pg/mL) of the folded scFv-PEG [13]: 1040 pg/mL
B6: 31A12c-PEG20 (scFv)
scFv: DIQLTQSPSFLSASVGDRVTITCQASEDIESYLAWYQQKPGKAPKLLIYSASTLTSGVPSRFSGSGSGTEFTLTISSLQPEDFATYYCLGADDTTTVFGGGTKVEIKGGGGSGGGGSGGGGSGGGGSEVQLVESGGGLVQPGGSLRLSCTASGFSLSSYWLTWVRQAPGKGLEWVGTIATSSTYYASWAKGRFTISRDNSKNTLYLQLNSLRAEDTAVYYCARGLTTDYDLDLWGQGTLVTVSS
modifications: C-terminal azidohomoalanine (Aha) conjugated to 20 kDa linear PEG bis-alkyne
